Target: human FcμR on BW5147 T cell transductants (human) (UniProt O60667)
Assay: radioligand binding

Sequence of UniProt O60667 (O60667 17-390): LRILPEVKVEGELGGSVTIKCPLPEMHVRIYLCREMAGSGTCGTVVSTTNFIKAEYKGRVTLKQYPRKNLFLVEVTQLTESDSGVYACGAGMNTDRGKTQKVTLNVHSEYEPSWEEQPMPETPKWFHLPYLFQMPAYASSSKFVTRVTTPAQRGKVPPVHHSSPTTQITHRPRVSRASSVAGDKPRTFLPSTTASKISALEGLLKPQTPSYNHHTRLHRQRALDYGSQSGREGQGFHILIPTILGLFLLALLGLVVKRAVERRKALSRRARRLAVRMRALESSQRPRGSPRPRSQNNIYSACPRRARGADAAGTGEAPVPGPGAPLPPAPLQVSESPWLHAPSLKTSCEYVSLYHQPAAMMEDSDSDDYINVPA

- Kd: 0.0108 µM
Substance: ^125I-labeled human IgM myeloma protein (antibody)

From paper PMC2806608
